The target in this assay is human glucose-dependent insulinotrophic polypeptide (GIP) (human). In words: sandwich immunoassay (MSD ECL): C-Terminal Antibody as capture, ruthenium-labelled N-Terminal Antibody as detection.

For one molecule, percent cross-reactivity (ECL against human oxyntomodulin (53-89), blank subtracted) results are on record in patent publication US20240059770A1.

Sequence of human glucose-dependent insulinotrophic polypeptide (GIP) (human) (peptide, as listed by the source): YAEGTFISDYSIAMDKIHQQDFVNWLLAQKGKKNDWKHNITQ

B1: Anti-Human Oxyntomodulin N-Terminal Antibody (antibody, V domains shown)
VH: QIQLVQSGPELKKPGETVKISCKASGYTFTDYAFSWVKQAPGKGLKWMGWITTNTGEATYADDFKGRFAFSLETSASTAYLQISNLKNEDTATYFCARETEYGDSSWFGHWGQGTLVTVSA
VL: DIVLTQSPASLAVSLGQRATISCRASESVDGWGNSFMHWYQQKPGQPPKLLIYLATYRVAGIPARFSGSGSRTDFTLTINPVEADDVATYYCMQSSEDPYTFGGGTKLEIKR
In the case of B1, the percent cross-reactivity (ECL against human oxyntomodulin (53-89), blank subtracted) worked out at 0.12%.
